According to the Immune Epitope Database (IEDB):
pKd: −log10 of the molar value. One block for each sequence: values may come before it.

How the values were obtained:
[1] = molecular target: HLA-A*01:01; assay: IEDB peptide-MHC binding, purified MHC/direct/fluorescence; filed as Kd, often an IC50 or EC50 that approximates it; ≥ and ≤ were set here for values at or beyond the usual limits of such assays
[2] = molecular target: HLA-A*02:01; assay: as above
[3] = molecular target: HLA-A*03:01; assay: as above
[4] = molecular target: HLA-A*11:01; assay: as above
[5] = molecular target: HLA-A*24:03; assay: as above
[6] = molecular target: HLA-A*26:01; assay: as above
[7] = molecular target: HLA-A*31:01; assay: as above
[8] = molecular target: HLA-A*69:01; assay: as above
[9] = molecular target: HLA-B*07:02; assay: as above
[10] = molecular target: HLA-B*08:01; assay: as above
[11] = molecular target: HLA-B*15:01; assay: as above
[12] = molecular target: HLA-B*27:05; assay: as above
[13] = molecular target: HLA-B*35:01; assay: as above
[14] = molecular target: HLA-B*40:01; assay: as above
[15] = molecular target: HLA-B*44:02; assay: as above
[16] = molecular target: HLA-B*58:01; assay: as above
[17] = molecular target: HLA-B*46:01; assay: as above
[18] = molecular target: HLA-C*14:02; assay: as above; conditions: source organism: Azotobacter vinelandii DJ
[19] = molecular target: HLA-A*30:01; assay: as above
[20] = molecular target: HLA-A*29:02; assay: as above; conditions: source organism: Vibrio parahaemolyticus AQ3810
[21] = molecular target: HLA-B*08:02; assay: as above
[22] = molecular target: HLA-B*18:01; assay: as above
[23] = molecular target: HLA-B*48:01; assay: as above
[24] = molecular target: HLA-B*51:01; assay: as above; conditions: source organism: Vibrio parahaemolyticus AQ3810
[25] = molecular target: HLA-A*02:01; assay: IEDB peptide-MHC binding, purified MHC/competitive/fluorescence; filed as Kd, often an IC50 or EC50 that approximates it; ≥ and ≤ were set here for values at or beyond the usual limits of such assays; conditions: source organism: Vibrio antiquarius
[26] = molecular target: HLA-A*02:03; assay: as above; conditions: source organism: Vibrio antiquarius
[27] = molecular target: HLA-A*02:06; assay: as above; conditions: source organism: Vibrio antiquarius
[28] = molecular target: HLA-A*11:01; assay: as above; conditions: source organism: Vibrio antiquarius
[29] = molecular target: HLA-B*15:01; assay: as above; conditions: source organism: Vibrio antiquarius
[30] = molecular target: HLA-B*15:17; assay: as above; conditions: source organism: Vibrio antiquarius
[31] = molecular target: HLA-B*57:01; assay: as above; conditions: source organism: Vibrio antiquarius
[32] = molecular target: HLA-A*29:02; assay: as above
[33] = molecular target: HLA-C*15:02; assay: IEDB peptide-MHC binding, purified MHC/direct/fluorescence; filed as Kd, often an IC50 or EC50 that approximates it; ≥ and ≤ were set here for values at or beyond the usual limits of such assays; conditions: source organism: Cryptosporidium parvum Iowa II
[34] = molecular target: HLA-A*26:02; assay: as above
[35] = molecular target: HLA-B*46:01; assay: IEDB peptide-MHC binding, purified MHC/competitive/fluorescence; filed as Kd, often an IC50 or EC50 that approximates it; ≥ and ≤ were set here for values at or beyond the usual limits of such assays; conditions: source organism: Psychromonas sp. PRT-SC03
[36] = molecular target: HLA-A*68:02; assay: IEDB peptide-MHC binding, purified MHC/direct/fluorescence; filed as Kd, often an IC50 or EC50 that approximates it; ≥ and ≤ were set here for values at or beyond the usual limits of such assays; conditions: source organism: Coxiella burnetii
[37] = molecular target: HLA-B*15:17; assay: as above; conditions: source organism: Coxiella burnetii
[38] = molecular target: HLA-B*57:01; assay: as above; conditions: source organism: Coxiella burnetii
[39] = source organism: Escherichia coli O157:H7
[40] = source organism: Burkholderia mallei ATCC 23344
[41] = source organism: Burkholderia mallei
[42] = source organism: Giardia lamblia ATCC 50803
[43] = source organism: Pseudomonas aeruginosa
[44] = source organism: Ectopseudomonas mendocina
[45] = source organism: Vibrio parahaemolyticus
[46] = source organism: Vibrio parahaemolyticus AQ3810
[47] = source organism: Enterobacteria phage f1
[48] = source organism: Coxiella burnetii
[49] = source organism: Coxiella burnetii Q321

- pKd [1, 39]: ≤ 4.70
- pKd [2, 39]: ≤ 4.70
- pKd [3, 39]: ≤ 4.70
- pKd [4, 39]: ≤ 4.70
- pKd [5, 39]: ≤ 4.70
- pKd [6, 39]: ≤ 4.70
- pKd [7, 39]: ≤ 4.70
- pKd [8, 39]: ≤ 4.70
- pKd [9, 39]: 4.93
- pKd [10, 39]: 5.42
- pKd [11, 39]: 6.03
- pKd [12, 39]: ≤ 4.70
- pKd [13, 39]: 6.03
- pKd [14, 39]: ≤ 4.70
- pKd [15, 39]: ≤ 4.70
- pKd [16, 39]: ≤ 4.70
Sequence: ADLRFASEF

Sequence: AMYAPYGPF
- pKd [9, 40]: 5.05
- pKd [11, 41]: ≥ 9.00
- pKd [13, 40]: 5.73
- pKd [17, 41]: 6.02
- pKd [18]: 7.41

Sequence: CYPRLWGVR
- pKd [1, 42]: ≤ 4.70
- pKd [2, 42]: ≤ 4.70
- pKd [3, 42]: ≤ 4.70
- pKd [4, 42]: ≤ 5.00
- pKd [6, 42]: ≤ 4.70
- pKd [19, 42]: 5.23
- pKd [8, 42]: ≤ 4.70
- pKd [9, 42]: 5.03
- pKd [10, 42]: ≤ 4.70
- pKd [11, 42]: ≤ 4.70
- pKd [12, 42]: ≤ 4.70
- pKd [14, 42]: ≤ 4.70
- pKd [15, 42]: ≤ 4.70
- pKd [16, 42]: ≤ 4.70

Sequence: EFDNYRGTI
- pKd [1, 42]: ≤ 4.70
- pKd [2, 42]: ≤ 4.70
- pKd [3, 42]: ≤ 4.70
- pKd [4, 42]: ≤ 4.70
- pKd [6, 42]: ≤ 4.70
- pKd [19, 42]: 5.13
- pKd [7, 42]: ≤ 4.70
- pKd [8, 42]: ≤ 4.70
- pKd [9, 42]: ≤ 4.70
- pKd [10, 42]: ≤ 4.70
- pKd [11, 42]: ≤ 4.70
- pKd [12, 42]: ≤ 4.70
- pKd [14, 42]: 4.78
- pKd [15, 42]: ≤ 4.70
- pKd [16, 42]: ≤ 4.70

- pKd [1, 43]: 5.14
- pKd [2, 43]: 4.74
- pKd [3, 44]: ≤ 4.70
- pKd [4, 44]: ≤ 4.70
- pKd [5, 44]: ≤ 4.70
- pKd [6, 44]: ≤ 4.70
- pKd [7, 44]: ≤ 4.70
- pKd [8, 44]: ≤ 4.70
- pKd [9, 43]: 5.10
- pKd [10, 43]: 5.28
- pKd [11, 44]: ≤ 4.70
- pKd [12, 44]: ≤ 4.70
- pKd [13, 43]: 6.10
- pKd [14, 43]: 5.06
- pKd [16, 44]: ≤ 4.70
Sequence: FSDARLAKL

Sequence: LVAPHMAMM
- pKd [1, 45]: ≤ 4.70
- pKd [3, 45]: ≤ 4.70
- pKd [20]: 6.49
- pKd [19, 46]: ≤ 4.70
- pKd [7, 45]: ≤ 4.70
- pKd [21, 46]: ≤ 4.70
- pKd [22, 45]: ≤ 4.70
- pKd [12, 45]: ≤ 4.70
- pKd [14, 45]: ≤ 4.70
- pKd [17, 45]: 4.96
- pKd [23, 45]: ≤ 4.70
- pKd [24]: ≤ 4.70
- pKd [16, 46]: 6.09
- pKd [25]: 5.47
- pKd [26]: 5.94
- pKd [27]: 7.27
- pKd [28]: ≤ 4.70
- pKd [29]: 7.02
- pKd [30]: 6.62
- pKd [31]: 5.95

Sequence: PVPDFPYRY
- pKd ([32]; source organism: Entamoeba dispar SAW760): 8.17

Sequence: SFIPIFYQF
- pKd [33]: ≤ 4.70
- pKd ([32]; source organism: Cryptosporidium parvum Iowa II): 8.66

Sequence: STYQPLPLY
- pKd [1, 41]: 6.01
- pKd [2, 41]: ≤ 4.70
- pKd [3, 41]: ≤ 4.70
- pKd [6, 40]: 7.41
- pKd [34, 40]: ≥ 9.00
- pKd [9, 41]: ≤ 4.70
- pKd [11, 41]: 7.61
- pKd [12, 41]: ≤ 4.70
- pKd [16, 41]: 6.71

Sequence: TFMYVFSTF
- pKd [1, 47]: ≤ 4.70
- pKd ([2]; source organism: Inovirus M13): 5.08
- pKd [3, 47]: ≤ 4.70
- pKd [4, 47]: ≤ 4.70
- pKd ([5]; source organism: Inovirus M13): 8.19
- pKd [6, 47]: ≤ 4.70
- pKd [8, 47]: ≤ 4.70
- pKd [9, 47]: ≤ 4.70
- pKd [10, 47]: ≤ 4.70
- pKd ([11]; source organism: Inovirus M13): 6.16
- pKd [12, 47]: ≤ 4.70
- pKd ([13]; source organism: Inovirus M13): 7.09
- pKd [14, 47]: ≤ 4.70
- pKd ([16]; source organism: Inovirus M13): 5.96
- pKd [35]: ≤ 4.70

Sequence: VFFKQWFEK
- pKd [1, 48]: ≤ 4.70
- pKd [2, 48]: ≤ 4.70
- pKd [3, 48]: 6.51
- pKd [4, 48]: 6.79
- pKd [6, 49]: ≤ 4.70
- pKd [34, 49]: ≤ 4.70
- pKd [7, 48]: 7.18
- pKd [36]: ≤ 4.70
- pKd [8, 48]: ≤ 4.70
- pKd [9, 48]: ≤ 4.70
- pKd [10, 49]: ≤ 4.70
- pKd [21, 49]: ≤ 4.70
- pKd [11, 48]: ≤ 4.70
- pKd [37]: ≤ 4.70
- pKd [22, 48]: ≤ 4.70
- pKd [12, 48]: ≤ 4.70
- pKd [14, 48]: ≤ 4.70
- pKd [17, 48]: ≤ 4.70
- pKd [23, 48]: ≤ 4.70
- pKd [38]: ≤ 4.70
- pKd [16, 48]: ≤ 4.70
